This is an account of results in article PMC10405735.

One test addresses CCL20 (Mus musculus) (UniProt O89093). To be noted: cited from earlier work.
In test [1] the target is murine GPR182 (mGPR182), expressed from mGPR182 T2A GFP in 300.19 pre-B cells (mouse) (UniProt P43142). Description: flow cytometry on cells; competition scavenging at 37°C: 300.19 cells expressing mGPR182 or hGPR182 with 3 nM fluorescent chemokine and increasing concentrations of its unlabeled counterpart, 45 min.
For test [2], the target named is human GPR182 (hGPR182), expressed from hGPR182 T2A GFP in 300.19 pre-B cells (human) (UniProt O15218). The test is described as above.

The Kd is the free concentration of one partner at which half of the binding sites on the other are occupied at equilibrium, for simple one-to-one binding. Take ACKR4 (from UniProt Q924I3): the Kd with CCL20 (Mus musculus) is 800 nM. “hCXCL12, unlabeled (from UniProt P48061 22-93) (ligand)”: the Kd (competition scavenging) was found to be 60 nM in test [1] and 85 nM in test [2].
